Source: the RNAGym collection of RNA variant scans (doi:10.1073/pnas.2313332121)
Fewer inactive variants are shown than the library holds.

B1: TPR 5TU (parent)
chain: GGAUCUUCUCGAUCUAACAAAAAAGACAAAUCUGCCACAAAGCUUGAGAGCAUCUUCGGAUGCAGAGGCGGCAGCCUUCGGUGGCGCGAUAGCGCCAACGUUCUCAACUAUGACACGCAAAACGCGUGCUCCGUUGAAUGGAGUUUAUCAUG

Variants of: B1
Experiment: polymerase ribozyme fitness, log enrichment relative to wild type (log ratio); higher = more active; in vitro selection for triplet polymerase activity
How it was run: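 Mutant libraries were PCR-built and transcribed for each subunit of a heterodimeric triplet polymerase ribozyme and selected for one round in triplicate at −7 °C, frozen, before gel excision of extended constructs and streptavidin-bead capture. Input and output libraries were Illumina-sequenced, keeping genotypes with ≥10 input reads and ≥1 read per output. Fitness is a logarithmic ratio of genotype to wild-type enrichment, in base 2, using inverse-variance-weighted replicate averages.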

A21U C79G C96U C105U U134A and A22C A24C U61G G88U cannot be ordered by “polymerase ribozyme fitness (log ratio)” value: ≤ -4.2 for the first, ≤ -4.2 for the second.

Going from A21C G50A A122U to A22C A28C A40G C43U U56G C85U, the “polymerase ribozyme fitness (log ratio)” value falls from -1.39 to ≤ -4.2.

Going from A21G C116G U144G to A22U A47G U56C G92C C105U, the “polymerase ribozyme fitness (log ratio)” value falls from 1.13 to -3.13.

First: A22U A23C
Second: A21U A37C A49G A52U A91C
The “polymerase ribozyme fitness (log ratio)” value of the first is higher: -4 for the first, ≤ -4.2 for the second.

Compared with A21U C51U A106U, A21C G84U U90C C116A A137C A138G is lower in “polymerase ribozyme fitness (log ratio)” value: -2.08 for the first, ≤ -4.2 for the second.

Compared with A22C G42U A73U G81C A91U C96U A107G G143C, A22C C57U A60U C69G is higher in “polymerase ribozyme fitness (log ratio)” value: ≤ -4.2 for the first, -1.7 for the second.

Compared with A22G C57U G70A A91C, A21U G83C C95U is higher in “polymerase ribozyme fitness (log ratio)” value: ≤ -4.2 for the first, -1.58 for the second.

Going from A21G C51U U53A C96U G126U to A21C C38U G46C U53G G88U A122U G126A U135C C149G, the “polymerase ribozyme fitness (log ratio)” value falls from -2.46 to ≤ -4.2.

Compared with A21U G136U, A21C C43A is lower in “polymerase ribozyme fitness (log ratio)” value: -2.65 for the first, ≤ -4.2 for the second.

A22G A24G G92U and A21U A26G G86U C118U cannot be ordered by “polymerase ribozyme fitness (log ratio)” value: ≤ -4.2 for the first, ≤ -4.2 for the second.

A21U A30U C38G C85G G112A G124A and A21U A39C U90C C95U A97U cannot be ordered by “polymerase ribozyme fitness (log ratio)” value: ≤ -4.2 for the first, ≤ -4.2 for the second.

First: A22C A60G C87U
Second: A21U A47G C54U G81C G92A C95A C99U
The “polymerase ribozyme fitness (log ratio)” value of the first is higher: 0.179 for the first, -3.94 for the second.

A21U U44A C93G G94C and A22U C38U C51U U53A C54A C85G cannot be ordered by “polymerase ribozyme fitness (log ratio)” value: ≤ -4.2 for the first, ≤ -4.2 for the second.

A21U G92A and A22U A150C are within 0.2 log units of each other in “polymerase ribozyme fitness (log ratio)” value: -2.72 for the first, -2.85 for the second.

Going from A21G C32G G34C U56A G59C U82G G88U C103G G140U to A21C C69A, the “polymerase ribozyme fitness (log ratio)” value rises from ≤ -4.2 to -1.75.

A23C A40U C95U U134A U151A and A21G G42A A49C A66U U82C C87U U135G U145A U148A cannot be ordered by “polymerase ribozyme fitness (log ratio)” value: ≤ -4.2 for the first, ≤ -4.2 for the second.

Compared with A21C C85G C103U G136A, A21U C93A is lower in “polymerase ribozyme fitness (log ratio)” value: -1.18 for the first, -1.74 for the second.

Compared with A22G A28U A29G A37C G48A A64C C85G C99U C125A A137G, A22U G71A is higher in “polymerase ribozyme fitness (log ratio)” value: ≤ -4.2 for the first, -2.64 for the second.

First: A21C G25C A52C A89U C118A A119C
Second: A22G U44A C85A
The “polymerase ribozyme fitness (log ratio)” value of the first is higher: -3.52 for the first, ≤ -4.2 for the second.

First: A22C C96A A97U U101C
Second: A22C C32U C85G C95A G100A G112C
The “polymerase ribozyme fitness (log ratio)” value of the first is higher: -1.53 for the first, ≤ -4.2 for the second.

Going from A22U A106G to A22U A30U C95U U134A, the “polymerase ribozyme fitness (log ratio)” value falls from 1.21 to ≤ -4.2.

Compared with A23C C51U G58A C75U C85G G143A U145G, A21C A91G C96U is higher in “polymerase ribozyme fitness (log ratio)” value: ≤ -4.2 for the first, -3.34 for the second.

Going from A23C A64G G70C to A21U C57A A89U, the “polymerase ribozyme fitness (log ratio)” value rises from ≤ -4.2 to -0.571.

A22U A24G U31A U56G C79U U90G C95U A97C A120U C125G and A21U A60C C87A A98G G100C cannot be ordered by “polymerase ribozyme fitness (log ratio)” value: ≤ -4.2 for the first, ≤ -4.2 for the second.

Going from A21C A52G C103G to A21C C72G G124C, the “polymerase ribozyme fitness (log ratio)” value falls from -1.21 to ≤ -4.2.

Going from A21C U61A A89U U90G G100U G136A A138C U144G to A21C A40C G94A G128U, the “polymerase ribozyme fitness (log ratio)” value rises from ≤ -4.2 to -3.51.

Going from A22C A26U C43U C76A C93G C118G to A21C C51U A106G, the “polymerase ribozyme fitness (log ratio)” value rises from ≤ -4.2 to -0.144.

First: A21C C96U A122C
Second: A21U A23U A24C C54U G81A C85U A147C
The “polymerase ribozyme fitness (log ratio)” value of the first is higher: -0.0635 for the first, ≤ -4.2 for the second.

A22U G80A and A21G U144A are within 0.2 log units of each other in “polymerase ribozyme fitness (log ratio)” value: 0.375 for the first, 0.357 for the second.

A21U A39U U61G G92U C108A G141A and A21G C27G U33C G62U G81U C96U C105A A113U A122U cannot be ordered by “polymerase ribozyme fitness (log ratio)” value: ≤ -4.2 for the first, ≤ -4.2 for the second.

First: A21C U56G G59A C72U A122U
Second: A21U G34A G83C
The “polymerase ribozyme fitness (log ratio)” value of the first is higher: -0.846 for the first, -2.46 for the second.

A22C C27U C54U C85G A91U G112A A119U A147C A150C and A21U A29U A66U C76A C93G cannot be ordered by “polymerase ribozyme fitness (log ratio)” value: ≤ -4.2 for the first, ≤ -4.2 for the second.

A22C G46A G59C A91C C99G U101G C116G A138C and A21C G81C G88A A107G cannot be ordered by “polymerase ribozyme fitness (log ratio)” value: ≤ -4.2 for the first, ≤ -4.2 for the second.

First: A21U G48C G83A C118G U145A
Second: A22G G58A C75A G86U C99A C103U G141C
The “polymerase ribozyme fitness (log ratio)” value of the first is higher: -2.76 for the first, ≤ -4.2 for the second.

A22C U53A G84C G112A C129A U134G A147C and A21U A23U C54U G58A G92U cannot be ordered by “polymerase ribozyme fitness (log ratio)” value: ≤ -4.2 for the first, ≤ -4.2 for the second.

First: A21G A52U C85G A119G C125U A137U
Second: A22U G86U
The “polymerase ribozyme fitness (log ratio)” value of the first is lower: ≤ -4.2 for the first, -1.05 for the second.

A23C A29G G81A G84U A122G G126A U135A and A22C C27G A37C A73G U146A G152U cannot be ordered by “polymerase ribozyme fitness (log ratio)” value: ≤ -4.2 for the first, ≤ -4.2 for the second.

A21G C57A G74A C76G C87U G124U and A22U A29G C35G U44G C57U C114A cannot be ordered by “polymerase ribozyme fitness (log ratio)” value: ≤ -4.2 for the first, ≤ -4.2 for the second.

First: A22U G143C
Second: A21U A60G
The “polymerase ribozyme fitness (log ratio)” value of the first is lower: -1.09 for the first, 0.987 for the second.

Going from A22U C54A to A23C A40C G83U U102A U145A, the “polymerase ribozyme fitness (log ratio)” value falls from -0.932 to ≤ -4.2.

A22U A52C G58C G84U C99A and A22U C99U U101G A115U U151G cannot be ordered by “polymerase ribozyme fitness (log ratio)” value: ≤ -4.2 for the first, ≤ -4.2 for the second.

First: A21U U82G C93G
Second: A22U C27G G50C G58C A97G C103G A110U U139A
The “polymerase ribozyme fitness (log ratio)” value of the first is higher: -3.69 for the first, ≤ -4.2 for the second.
